Measured values from patent publication US20230287143A1.

How the values were obtained:
human 4-1BB (human) [1] = biological target: human 4-1BB (human) (UniProt Q07011); assay: FACS; panel A
human 4-1BB (human) [2] = biological target: human 4-1BB (human) (UniProt Q07011); assay: FACS; panel C
CHO-K1/hu OX40 (human) = CHO-K1/hu OX40 (human) (UniProt P43489); assay: FACS
CHO-K1/hu OX40 (human), sequence (P43489 29-277): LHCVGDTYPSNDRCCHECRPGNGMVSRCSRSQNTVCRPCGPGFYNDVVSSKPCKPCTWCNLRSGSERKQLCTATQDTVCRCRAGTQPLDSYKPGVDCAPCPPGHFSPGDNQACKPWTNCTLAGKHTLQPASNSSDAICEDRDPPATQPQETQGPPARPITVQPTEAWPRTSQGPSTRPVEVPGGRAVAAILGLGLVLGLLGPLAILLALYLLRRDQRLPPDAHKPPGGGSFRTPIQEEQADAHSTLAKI

human 4-1BB (human), sequence (Q07011 24-255): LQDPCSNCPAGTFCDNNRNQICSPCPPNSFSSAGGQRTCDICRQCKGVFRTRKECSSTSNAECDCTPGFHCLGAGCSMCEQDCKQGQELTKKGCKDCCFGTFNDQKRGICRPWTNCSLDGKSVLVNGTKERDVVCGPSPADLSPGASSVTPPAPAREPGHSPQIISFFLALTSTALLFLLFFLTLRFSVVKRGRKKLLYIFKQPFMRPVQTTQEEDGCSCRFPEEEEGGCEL

| EC50 (human 4-1BB (human) [1]) [nM] | EC50 (human 4-1BB (human) [2]) [nM] | EC50 (CHO-K1/hu OX40 (human)) [nM] | Substance |
| --- | --- | --- | --- |
| 0.347 | 1.01 |  | Anti-4-1BB monoclonal antibody Urelumab analog (hIgG4) |
|  |  | 1.15 | Pogalizumab |
